T1: human IL-2Rβ ectodomain (amino acids 1-214), C-terminal hexahistidine tag (human, UniProt P14784 27-240)
T1 construct: range 1-214; also called CD122; IL-2Rβ ECD
T1 sequence: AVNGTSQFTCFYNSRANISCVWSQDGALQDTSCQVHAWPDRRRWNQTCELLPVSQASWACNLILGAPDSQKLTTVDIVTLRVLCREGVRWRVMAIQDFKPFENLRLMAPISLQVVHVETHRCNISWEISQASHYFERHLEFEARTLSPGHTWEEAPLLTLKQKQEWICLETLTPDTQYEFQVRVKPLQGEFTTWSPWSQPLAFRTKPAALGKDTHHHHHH

T2: biotinylated IL-2Rβ ectodomain (C-terminal biotin acceptor peptide and hexahistidine tag) (human, UniProt P14784 27-240, C-terminally biotinylated (biotin acceptor peptide, BirA ligase))
T2 construct: range 1-214; Staining reagent for yeast; also called tetrameric IL-2Rβ; monomeric IL-2Rβ
T2 sequence: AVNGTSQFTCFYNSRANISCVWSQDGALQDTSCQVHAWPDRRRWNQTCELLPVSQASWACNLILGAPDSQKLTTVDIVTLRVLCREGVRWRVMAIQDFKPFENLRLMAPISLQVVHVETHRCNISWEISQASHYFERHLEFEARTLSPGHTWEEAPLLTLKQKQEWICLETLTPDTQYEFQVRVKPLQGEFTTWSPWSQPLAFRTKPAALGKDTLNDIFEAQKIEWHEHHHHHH

B1: H9-RET (H9 with L18R, Q22E and Q126T) (ligand)
chain: APTSSSTKKTQLQLEHLRLDLEMILNGINNYKNPKLTRMLTFKFYMPKKATELKHLQCLEEELKPLEEVLNLAQSKNFHFDPRDVVSNINVFVLELKGSETTFMCEYADETATIVEFLNRWITFCTSIISTLTHHHHHH
B2: IL-2 mutein B1 (ligand)
chain: APTSSSTKKTQLQLEHLLLDLQMILNGINNYKNPKLTRMLTFKFYMPKKATELKHLQCLEEELKPLEEVLNLANSKNFHFDPRDVVSNVNVFVLELKGSETTFMCEYADETATIVEFLNRWITFCQSIISTLTHHHHHH
B3: IL-2 mutein C5 (ligand)
chain: APTSSSTKKTQLQLEHLLLDLQMILNGINNYKNPKLTRMLTFKFYMPKKATELKHLQCLEEELKPLEEVLNLANSKNFHVTPRDVVSNINVFVLELKGSETTFMCEYADETATIVEFLNRWITFCQSIISTLTHHHHHH
B4: IL-2 mutein D10 (ligand)
chain: APTSSSTKKTQLQLEHLLLDLQMILNGINNYKNPKLTRMLTFKFYMPKKATELKHLQCLEEELKPLEEVLNLAHSKNFHFDPRDVVSNINVFVLELKGSETTFMCEYADETATIVEFLNRWITFCQSIISTLTHHHHHH
notes: also called IL-2 D10; super-2
B5: IL-2 mutein E10 (ligand)
chain: APTSSSTKKTQLQLEHLLLDLQMILNGINNYKNPKLTRMLTFKFYMPKKATELKHLQCLEEELKPLEEVLNLASSKNFHFDPRDVVSNINVFVLELKGSETTFMCEYADETATIVEFLNRWITFCQSIISTLTHHHHHH
B6: IL-2 mutein G8 (ligand)
chain: APTSSSTKKTQLQLEHLLLDLQMILNGINNYKNPKLTRMLTFKFYMPKKATELKHLQCLEEELKPLEEVLNLANSKNFHFDPRDVVSNINVFVLELKGSETTFMCEYADETATIVEFLNRWITFCQSIISTLTHHHHHH
B7: IL-2 mutein H4 (ligand)
chain: APTSSSTKKTQLQLEHLLLDLQMILNGINNYKNPKLTRMLTFKFYMPKKATELKHLQCLEEELKPLEEVLNLASSKNFHLTPRDVISNINVFVLELKGSETTFMCEYADETATIVEFLNRWITFCQSIISTLTHHHHHH
B8: IL-2 mutein H9 (ligand)
chain: APTSSSTKKTQLQLEHLLLDLQMILNGINNYKNPKLTRMLTFKFYMPKKATELKHLQCLEEELKPLEEVLNLAQSKNFHFDPRDVVSNINVFVLELKGSETTFMCEYADETATIVEFLNRWITFCQSIISTLTHHHHHH
notes: also called super-IL-2; super-2
B9: yeast-displayed IL-2 clone G8 (ligand)
chain: APTSSSTKKTQLQLEHLLLDLQMILNGINNYKNPKLTRMLTFKFYMPKKATELKHLQCLEEELKPLEEVLNLANSKNFHFDPRDVVSNINVFVLELKGSETTFMCEYADETATIVEFLNRWITFCQSIISTLT
notes: Clone of the second generation yeast library; not shown: yeast display fusion partner and linker encoded by vector pCT302
B10: yeast-displayed IL-2 clone B1 (ligand)
chain: APTSSSTKKTQLQLEHLLLDLQMILNGINNYKNPKLTRMLTFKFYMPKKATELKHLQCLEEELKPLEEVLNLANSKNFHFDPRDVVSNVNVFVLELKGSETTFMCEYADETATIVEFLNRWITFCQSIISTLT
notes: as for B9
B11: yeast-displayed IL-2 clone C5 (ligand)
chain: APTSSSTKKTQLQLEHLLLDLQMILNGINNYKNPKLTRMLTFKFYMPKKATELKHLQCLEEELKPLEEVLNLANSKNFHVTPRDVVSNINVFVLELKGSETTFMCEYADETATIVEFLNRWITFCQSIISTLT
notes: as for B9
B12: yeast-displayed IL-2 clone D10 (ligand)
chain: APTSSSTKKTQLQLEHLLLDLQMILNGINNYKNPKLTRMLTFKFYMPKKATELKHLQCLEEELKPLEEVLNLAHSKNFHFDPRDVVSNINVFVLELKGSETTFMCEYADETATIVEFLNRWITFCQSIISTLT
notes: as for B9
B13: yeast-displayed IL-2 clone E10 (ligand)
chain: APTSSSTKKTQLQLEHLLLDLQMILNGINNYKNPKLTRMLTFKFYMPKKATELKHLQCLEEELKPLEEVLNLASSKNFHFDPRDVVSNINVFVLELKGSETTFMCEYADETATIVEFLNRWITFCQSIISTLT
notes: as for B9
B14: yeast-displayed IL-2 clone H4 (ligand)
chain: APTSSSTKKTQLQLEHLLLDLQMILNGINNYKNPKLTRMLTFKFYMPKKATELKHLQCLEEELKPLEEVLNLASSKNFHLTPRDVISNINVFVLELKGSETTFMCEYADETATIVEFLNRWITFCQSIISTLT
notes: as for B9
B15: yeast-displayed IL-2 clone H9 (ligand)
chain: APTSSSTKKTQLQLEHLLLDLQMILNGINNYKNPKLTRMLTFKFYMPKKATELKHLQCLEEELKPLEEVLNLAQSKNFHFDPRDVVSNINVFVLELKGSETTFMCEYADETATIVEFLNRWITFCQSIISTLT
notes: as for B9

Assays:
[1] = target: CD25 (IL-2Rα) on CD25+ YT-1 cells (human) (UniProt P01589); assay: cell-based or functional assay
CD25 (IL-2Rα) on CD25+ YT-1 cells (human), sequence (P01589 22-272): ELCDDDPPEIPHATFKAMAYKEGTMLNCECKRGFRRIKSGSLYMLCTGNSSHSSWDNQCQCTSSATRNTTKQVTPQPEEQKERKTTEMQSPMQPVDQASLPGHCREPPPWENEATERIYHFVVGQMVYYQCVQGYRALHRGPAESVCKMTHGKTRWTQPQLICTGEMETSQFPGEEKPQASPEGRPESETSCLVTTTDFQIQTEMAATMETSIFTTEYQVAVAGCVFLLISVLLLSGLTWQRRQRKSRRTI

[2] = target: T1, human IL-2Rβ ectodomain (amino acids …); assay: SPR
Procedure: Dissociation was then tracked for 200 s. An irrelevant biotinylated protein was immobilized in the reference channel to subtract non-specific binding from the measurements. Experiments were carried out in HBS-P+ buffer (GE Healthcare) supplemented with 0.2% BSA at 25° C. All binding studies were performed at a flow rate of […] to minimize mass transport contributions and prevent rebinding of the analyte. For all measurements, data analysis and determination of equilibrium and kinetic parameters were implemented using the Biacore T100 evaluation software version 2.0 assuming a 1:1 Langmuir binding model.

[3] = target: T1, human IL-2Rβ ectodomain (amino acids …); assay: SPR (Example 10), recombinant protein
[4] = target: T1, human IL-2Rβ ectodomain (amino acids …); assay: surface plasmon resonance
[5] = target: T1, human IL-2Rβ ectodomain (amino acids …); assay: SPR affinities of D10 and wild-type IL-2, told with the structure
[6] = target: T2, biotinylated IL-2Rβ ectodomain …; assay: yeast clone screen: labeling with 5 nM IL-2Rβ and then SAV-PE
Procedure: Selection of second generation IL-2 library: The library was subjected to five rounds of selection against IL-2Rβ (FIG. 2B). This selection method was performed exactly as with the first generation library, only with modifications to the concentrations of IL-2Rβ used (round 1—1 μM, round 2—100 nM, round 3—30 nM, round 4—30 nM, round 5—10 nM, all monomeric IL-2Rβ). Upon conclusion of selections, round four and round five yeast cultures were spread on SD-CAA plates, which yielded individual yeast colonies. 48 individual yeast clones from both rounds were grown in 96-well block format and screened by labeling with 5 nM IL-2Rβ and then SAV-PE.

| Molecule | Kd [3] [nM] | koff [4] [s⁻¹] | binding result [6] | also measured |
| --- | --- | --- | --- | --- |
| IL-2 F42A (from UniProt P60568 21-153) (ligand) |  |  |  | STAT5 phosphorylation dose response on CD25+ YT-1 cells [1]: 1 log |
| B1 |  |  |  | binding result [2]: binds |
| B2 | 1.6 | 0.005 |  |  |
| B3 | 10 | 0.016 |  |  |
| B4 | 1.2 | 0.0051 |  | fold affinity gain [5]: ~300 fold; Kd [4]: 1.3 nM; kon [4]: 4.1e+06 M⁻¹ s⁻¹ |
| B5 | 1.3 | 0.0055 |  |  |
| B6 | 1.5 | 0.0049 |  |  |
| B7 | 14 | 0.013 |  |  |
| B8 | 1.3 | 0.0056 |  | Kd [4]: 1.4 nM; kon [4]: 4.1e+06 M⁻¹ s⁻¹ |
| B9 |  |  | binds |  |
| B10 |  |  | binds |  |
| B11 |  |  | binds |  |
| B12 |  |  | binds |  |
| B13 |  |  | binds |  |
| B14 |  |  | binds |  |
| B15 |  |  | binds |  |
